In patent US20230147657A1 (INSERM INSTITUT NATIONAL DE LA SANT ET DE LA RECHERCHE M …, published 2023):
Like-named read-outs stand apart in the source and are kept apart here.

T1: human CD45RC (human, UniProt P08575 26-1306)
T1 construct: Native protein on human blood leukocytes / PBMC / T cells of healthy volunteers; also called hCD45RC
T1 sequence: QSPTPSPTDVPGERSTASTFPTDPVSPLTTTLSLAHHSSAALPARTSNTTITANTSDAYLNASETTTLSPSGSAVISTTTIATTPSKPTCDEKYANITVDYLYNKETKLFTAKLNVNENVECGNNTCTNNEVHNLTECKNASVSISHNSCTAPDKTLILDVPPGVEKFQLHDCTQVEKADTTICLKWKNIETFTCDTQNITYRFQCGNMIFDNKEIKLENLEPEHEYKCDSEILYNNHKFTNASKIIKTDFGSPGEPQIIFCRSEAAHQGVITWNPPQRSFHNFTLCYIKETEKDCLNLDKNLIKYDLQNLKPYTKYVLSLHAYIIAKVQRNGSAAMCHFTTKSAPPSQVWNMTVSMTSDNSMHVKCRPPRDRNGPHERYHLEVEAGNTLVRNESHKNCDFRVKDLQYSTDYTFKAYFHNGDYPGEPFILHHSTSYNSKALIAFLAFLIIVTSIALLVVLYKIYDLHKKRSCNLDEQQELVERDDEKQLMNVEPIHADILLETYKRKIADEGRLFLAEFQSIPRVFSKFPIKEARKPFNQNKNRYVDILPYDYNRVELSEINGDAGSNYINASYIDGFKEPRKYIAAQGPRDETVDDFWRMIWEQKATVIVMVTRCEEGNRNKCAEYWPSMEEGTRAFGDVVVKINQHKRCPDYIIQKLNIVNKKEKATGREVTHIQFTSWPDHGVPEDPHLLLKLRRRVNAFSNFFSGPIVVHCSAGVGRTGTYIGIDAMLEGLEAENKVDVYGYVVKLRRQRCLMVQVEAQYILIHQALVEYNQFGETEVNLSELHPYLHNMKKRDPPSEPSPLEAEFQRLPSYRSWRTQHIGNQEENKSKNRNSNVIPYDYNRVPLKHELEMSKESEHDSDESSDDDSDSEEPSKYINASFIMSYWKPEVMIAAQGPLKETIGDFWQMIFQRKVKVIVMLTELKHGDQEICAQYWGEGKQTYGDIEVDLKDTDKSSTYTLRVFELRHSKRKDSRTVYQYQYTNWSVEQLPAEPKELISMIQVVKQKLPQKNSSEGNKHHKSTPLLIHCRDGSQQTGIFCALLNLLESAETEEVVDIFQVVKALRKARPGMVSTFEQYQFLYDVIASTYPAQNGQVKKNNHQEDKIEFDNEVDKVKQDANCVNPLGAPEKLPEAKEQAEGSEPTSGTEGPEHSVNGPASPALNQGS


Tests used:
Assay in all cases: flow cytometry on T cells of human PBMC; biotin anti-human IgG + streptavidin PerCP-Cy5.5
human CD45RC [1] = target: T1, human CD45RC
human CD45RC [2] = target: T1, human CD45RC; remark: listed apart in the source
human CD45RC [3] = target: T1, human CD45RC; remark: listed apart in the source

% of T cells in the CD45RC gate at 1 µg/mL (human CD45RC [2]) | % of T cells in the CD45RC gate at 2 µg/mL (human CD45RC [2]) | % of T cells in the CD45RC gate at 1 µg/mL (human CD45RC [3]) | % of T cells in the CD45RC gate at 2 µg/mL (human CD45RC [3]) | Binder | also measured
 |  |  |  | Anti-45RC Variant H (antibody, human IgG1, kappa, V domains shown, also called humanized ABIS-45RC variant H) VH: QVQLVESGGGLVKPGGSLRLSCAASGYTFTNYYIGWIRQAPGKGLEWIGDIFPGGDYANSNEKVKGRFTLSADTAKNSAYLQMNSLRAEDTAVYYCVRRNFDYWGQGTLVTVSS VL: EIVLTQSPATLSLSPGERATLSCSASSSVSYMHWFQQKPGQAPRLWIYNTSNLPSGIPARFSGSGSGTDYTLTISSLEPEDFAVYYCQQRSSYPLTFGGGTKVEIKR | % of T cells in the CD45RC gate at 1 µg/mL (human CD45RC [1]): 29.5%; % of T cells in the CD45RC gate at 2 µg/mL (human CD45RC [1]): 13.2%
53.7% | 48.9% |  |  | Anti-45RC Variant E (antibody, human IgG1, kappa, V domains shown, also called humanized ABIS-45RC variant E) VH: EVQLVQSGAEVKKPGESLKISCKASGYTFTNYYIGWVRQMPGKGLEWIGDIFPGGDYANSNEKFKGQVTLSADKSISTAYLQLSSLKASDTAMYYCVRRNFDYWGQGTLVTVSS VL: EIVLTQSPDFQSVTPKEKVTITCSASSSVSYMHWFQQKPDQSPKLWIYNTSNLPSGVPSRFSGSGSGTDYTLTINSLEAEDAATYYCQQRSSYPLTFGGGTKVEIKR | 
55.7% | 54.2% |  |  | Anti-45RC Variant G (antibody, human IgG1, kappa, V domains shown, also called humanized ABIS-45RC variant G) VH: QVQLVESGGGLVKPGGSLRLSCAASGYTFTNYYIGWIRQAPGKGLEWIGDIFPGGDYANSNEKVKGRFTLSADTAKNSAYLQMNSLRAEDTAVYYCVRRNFDYWGQGTLVTVSS VL: EIVLTQSPDFQSVTPKEKVTITCSASSSVSYMHWFQQKPDQSPKLWIYNTSNLPSGVPSRFSGSGSGTDYTLTINSLEAEDAATYYCQQRSSYPLTFGGGTKVEIKR | 
58.8% | 57.2% |  |  | Anti-45RC Variant F (antibody, human IgG1, kappa, V domains shown, also called humanized ABIS-45RC variant F) VH: EVQLVQSGAEVKKPGESLKISCKASGYTFTNYYIGWVRQMPGKGLEWIGDIFPGGDYANSNEKFKGQVTLSADKSISTAYLQLSSLKASDTAMYYCVRRNFDYWGQGTLVTVSS VL: EIVLTQSPATLSLSPGERATLSCSASSSVSYMHWFQQKPGQAPRLWIYNTSNLPSGIPARFSGSGSGTDYTLTISSLEPEDFAVYYCQQRSSYPLTFGGGTKVEIKR | 
 |  | 58.2% | 60.2% | Anti-45RC Variant A (antibody, human IgG1, kappa, V domains shown, also called humanized ABIS-45RC variant A) VH: QVQLVQSGAEVKKPGASVKVSCKASGYTFTNYYIGWVRQAPGQGLEWIGDIFPGGDYANSNEKFKGRVTLTADTSISTAYMELSRLRSDDTVVYYCVRRNFDYWGQGTLVTVSS VL: DIQLTQSPSFLSASVGDRVTITCSASSSVSYMHWFQQKPGKAPKLWIYNTSNLPSGVPSRFSGSGSGTEYTLTISSLQPEDFATYYCQQRSSYPLTFGGGTKVEIKR | 
 |  | 63.3% | 63.7% | Anti-45RC Variant C (antibody, human IgG1, kappa, V domains shown, also called humanized ABIS-45RC variant C) VH: QVQLVQSGAEVKKPGASVKVSCKASGYTFTNYYIGWVRQAPGQGLEWIGDIFPGGDYANSNEKFKGRVTLTADTSISTAYMELSRLRSDDTVVYYCVRRNFDYWGQGTLVTVSS VL: EIVLTQSPATLSLSPGERATLSCSASSSVSYMHWFQQKPGQAPRLWIYNTSNLPSGIPARFSGSGSGTDYTLTISSLEPEDFAVYYCQQRSSYPLTFGGGTKVEIKR | 
 |  |  |  | Anti-45RC Variant I (antibody, human IgG1, kappa, V domains shown, also called humanized ABIS-45RC variant I) VH: QVQLVESGGGLVKPGGSLRLSCAASGYTFTNYYIGWIRQAPGKGLEWIGDIFPGGDYANSNEKVKGRFTLSADTAKNSAYLQMNSLRAEDTAVYYCVRRNFDYWGQGTLVTVSS VL: DIQLTQSPSFLSASVGDRVTITCSASSSVSYMHWFQQKPGKAPKLWIYNTSNLPSGVPSRFSGSGSGTEYTLTISSLQPEDFATYYCQQRSSYPLTFGGGTKVEIKR | % of T cells in the CD45RC gate at 1 µg/mL (human CD45RC [1]): 49.7%; % of T cells in the CD45RC gate at 2 µg/mL (human CD45RC [1]): 48.9%
 |  | 43.9% | 32.7% | Anti-45RC Variant B (antibody, human IgG1, kappa, V domains shown, also called humanized ABIS-45RC variant B) VH: QVQLVQSGAEVKKPGASVKVSCKASGYTFTNYYIGWVRQAPGQGLEWIGDIFPGGDYANSNEKFKGRVTLTADTSISTAYMELSRLRSDDTVVYYCVRRNFDYWGQGTLVTVSS VL: EIVLTQSPDFQSVTPKEKVTITCSASSSVSYMHWFQQKPDQSPKLWIYNTSNLPSGVPSRFSGSGSGTDYTLTINSLEAEDAATYYCQQRSSYPLTFGGGTKVEIKR | 
 |  | 57.2% | 59.5% | Anti-45RC Variant D (antibody, human IgG1, kappa, V domains shown, also called humanized ABIS-45RC variant D) VH: EVQLVQSGAEVKKPGESLKISCKASGYTFTNYYIGWVRQMPGKGLEWIGDIFPGGDYANSNEKFKGQVTLSADKSISTAYLQLSSLKASDTAMYYCVRRNFDYWGQGTLVTVSS VL: DIQLTQSPSFLSASVGDRVTITCSASSSVSYMHWFQQKPGKAPKLWIYNTSNLPSGVPSRFSGSGSGTEYTLTISSLQPEDFATYYCQQRSSYPLTFGGGTKVEIKR | 
